Assay results taken from patent US20080044423A1 (AstraZeneca / MedImmune, published 2008).
Read-outs that look alike come from different tables or passages of the source.

T1: cynomolgus IL-17A (cynomolgus, UniProt Q16552 24-155 (human entry), limits assumed)
T1 construct: in house, E. coli derived (HEK EBNA derived in some HT1080 assays); also called Cyno IL-17A; Cyno IL-17
T1 chain: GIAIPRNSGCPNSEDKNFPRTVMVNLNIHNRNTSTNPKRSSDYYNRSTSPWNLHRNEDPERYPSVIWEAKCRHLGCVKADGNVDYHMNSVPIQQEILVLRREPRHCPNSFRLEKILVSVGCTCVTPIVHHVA

B1: Antibody 7 IgG1 (antibody, V domains shown)
VH: not shown
VL: NFMLTQPHSVSESPGKTVTISCTRSSGSLANYYVQWYQQRPGSSPTIVIFANNQRPSGVPDRFSGSIDSSSNSASLTISGLKTEDEADYYCQTYDPYSVVFGGGTKLTVL
notes: human IgG1, lambda; constant regions not in the listing; also called Antibody 07
B2: Antibody 3 IgG1 (antibody, V domains shown)
VH: not shown
VL: NFMLTQPHSVSESPGKTVTISCTRSSGSLANYYVQWYQQRPGSAPTIVIFANNQRPSGVPDRFSGSIDSSSNSASLTISRLKTEDEADYYCQSYSPHSVVFGGGTKLTVL
B3: Antibody 12 IgG1 (antibody, V domains shown)
VH: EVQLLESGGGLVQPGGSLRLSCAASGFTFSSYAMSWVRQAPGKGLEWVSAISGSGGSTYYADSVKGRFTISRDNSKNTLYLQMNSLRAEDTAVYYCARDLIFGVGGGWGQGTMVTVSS
VL: NFMLTQPHSVSESPGKTVTISCTRSSGSLANYYVQWYQQRPGSAPTIVIFANNQRPSGVPDRFSGSIDSSSNSASLTISRLKTEDEADYYCQTYDPYSVVFGGGTKLTVL
B4: Antibody 10 IgG1 (antibody, V domains shown)
VH: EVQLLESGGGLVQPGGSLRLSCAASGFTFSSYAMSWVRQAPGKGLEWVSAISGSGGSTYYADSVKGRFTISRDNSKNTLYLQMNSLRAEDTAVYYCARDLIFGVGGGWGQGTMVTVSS
VL: NFMLTQPHSVSESPGKTVTISCTRSSGSLANYYVQWYQQRPGSAPTIVIFANNQRPSGVPDRFSGSIDSSSNSASLTISRLKTEDEADYYCQSYDPHSVVFGGGTKLTVL
B5: Antibody 9 IgG1 (antibody, V domains shown)
VH: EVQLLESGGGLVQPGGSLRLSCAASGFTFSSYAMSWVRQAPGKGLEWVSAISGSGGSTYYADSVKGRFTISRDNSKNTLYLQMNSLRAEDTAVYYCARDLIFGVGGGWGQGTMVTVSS
VL: NFMLTQPHSVSESPGKTVTISCTRSSGSLANYYVQWYQQRPGSAPTIVIFANNQRPSGVPDRFSGSIDSSSNSASLTISRLKTEDEADYYCQSYSPHSVVFGGGTKLTVL
B6: Antibody 4 IgG1 (antibody, V domains shown)
VH: not shown
VL: NFMLTQPHSVSESPGKTVTISCTRSSGSLANYYVQWYQQRPGSAPTIVIFANNQRPSGVPDRFSGSIDSSSNSASLTISRLKTEDEADYYCQSYSPTSVVFGGGTKLTVL
B7: Antibody 1 scFv (scFv, V domains shown)
VH: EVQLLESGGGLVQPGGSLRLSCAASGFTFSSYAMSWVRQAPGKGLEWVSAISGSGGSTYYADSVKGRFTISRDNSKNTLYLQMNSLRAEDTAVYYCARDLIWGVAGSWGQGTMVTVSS
VL: NFMLTQPHSVSESPGKTVTISCTRSSGSLANYYVQWYQQRPGSAPTIVIFANNQRPSGVPDRFSGSIDSSSNSASLTISRLKTEDEADYYCQSYDDSSVVFGGGTKLTVL
notes: scFv (one chain); also called TINA12
B8: Antibody 5 IgG1 (antibody, V domains shown)
VH: not shown
VL: NFMLTQPHSVSESPGKTVTISCTRSSGSLANYYVQWYQQRPGSAPTIVIFANNQRPSGVPDRFSGSIDSSSNSASLTISRLKTEDEADYYCQSYNHKDIVFGGGTKLTVL
B9: Antibody 13 scFv (non-germlined) (scFv, V domains shown)
VH: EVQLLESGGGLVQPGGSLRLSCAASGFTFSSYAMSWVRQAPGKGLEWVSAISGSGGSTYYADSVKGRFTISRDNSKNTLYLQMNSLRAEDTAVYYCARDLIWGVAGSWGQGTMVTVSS
VL: NFMLTQPHSVSESPGKTVTISCTRSSGSLANYYVQWYQQRPGSAPTIVIFANNQRPSGVPDRFSGSIDSSSNSASLTISRLKTEDEADYYCQSYDPRVVVFGGGTKLTVL
notes: scFv (one chain)
B10: Antibody 15 scFv (non-germlined) (scFv, V domains shown)
VH: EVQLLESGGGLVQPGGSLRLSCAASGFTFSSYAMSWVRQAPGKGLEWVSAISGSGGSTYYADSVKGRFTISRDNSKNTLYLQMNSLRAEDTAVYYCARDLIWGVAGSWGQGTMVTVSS
VL: NFMLTQPHSVSESPGKTVTISCTRSSGSLANYYVQWYQQRPGSAPTIVIFANNQRPSGVPDRFSGSIDSSSNSASLTISRLKTEDEADYYCQSYSPTSVVFGGGTKLTVL
notes: scFv (one chain)
B11: Antibody 14 scFv (non-germlined) (scFv, V domains shown)
VH: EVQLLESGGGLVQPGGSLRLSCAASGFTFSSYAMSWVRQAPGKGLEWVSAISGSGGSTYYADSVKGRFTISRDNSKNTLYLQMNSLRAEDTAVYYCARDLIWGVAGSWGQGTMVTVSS
VL: NFMLTQPHSVSESPGKTVTISCTRSSGSLANYYVQWYQQRPGSAPTIVIFANNQRPSGVPDRFSGSIDSSSNSASLTISRLKTEDEADYYCQSYDPTNQVFGGGTKLTVL
notes: scFv (one chain)
B12: Antibody 11 scFv (scFv, V domains shown)
VH: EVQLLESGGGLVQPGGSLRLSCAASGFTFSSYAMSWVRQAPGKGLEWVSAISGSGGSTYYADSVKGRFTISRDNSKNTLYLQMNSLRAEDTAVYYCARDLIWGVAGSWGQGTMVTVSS
VL: NFMLTQPHSVSESPGKTVTISCTRSSGSLANYYVQWYQQRPGSAPTIVIFANNQRPSGVPDRFSGSIDSSSNSASLTISRLKTEDEADYYCQSYSPHSVVFGGGTKLTVL
notes: scFv (one chain)
B13: Antibody 8 scFv (scFv, V domains shown)
VH: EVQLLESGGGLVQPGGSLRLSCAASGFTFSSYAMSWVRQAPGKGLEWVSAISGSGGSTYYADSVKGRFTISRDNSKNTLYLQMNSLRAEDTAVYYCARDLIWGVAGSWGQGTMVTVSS
VL: NFMLTQPHSVSESPGKTVTISCTRSSGSLANYYVQWYQQRPGSAPTIVIFANNQRPSGVPDRFSGSIDSSSNSASLTISRLKTEDEADYYCQSYNHKDIVFGGGTKLTVL
notes: scFv (one chain)
B14: Antibody 6 scFv (non-germlined) (scFv, V domains shown)
VH: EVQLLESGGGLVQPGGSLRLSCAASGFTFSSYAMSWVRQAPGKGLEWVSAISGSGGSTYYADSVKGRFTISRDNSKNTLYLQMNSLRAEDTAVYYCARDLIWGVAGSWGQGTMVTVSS
VL: NFMLTQPHSVSESPGKTVTISCTRSSGSLANYYVQWYQQRPGSAPTIVIFANNQRPSGVPDRFSGSIDSSSNSASLTISRLKTEDEADYYCQSYSPSSVVFGGGTKLTVL
notes: scFv (one chain)
B15: Antibody 2 scFv (non-germlined) (scFv, V domains shown)
VH: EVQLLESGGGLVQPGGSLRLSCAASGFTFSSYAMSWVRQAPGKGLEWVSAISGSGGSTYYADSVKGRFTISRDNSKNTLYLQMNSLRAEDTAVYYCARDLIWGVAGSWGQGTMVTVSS
VL: NFMLTQPHSVSESPGKTVTISCTRSSGSLANYYVQWYQQRPGSAPTIVIFANNQRPSGVPDRFSGSIDSSSNSASLTISRLKTEDEADYYCQSYDPHSVVFGGGTKLTVL
notes: scFv (one chain)
B16: Antibody 16 scFv (scFv, V domains shown)
VH: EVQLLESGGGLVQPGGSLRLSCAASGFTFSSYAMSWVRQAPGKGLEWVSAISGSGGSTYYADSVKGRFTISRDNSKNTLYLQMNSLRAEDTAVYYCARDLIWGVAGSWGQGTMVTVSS
VL: NFMLTQPHSVSESPGKTVTISCTRSSGSLANYYVQWYQQRPGSAPTIVIFANNQRPSGVPDRFSGSIDSSSNSASLTISRLKTEDEADYYCQTYDPYSVVFGGGTKLTVL
notes: scFv (one chain)
B17: dog IL-17A (in house E. Coli derived) (ligand)
chain: GIAFPQNPGCRNTEDKNFPQHVKVNLNILNRNTNSRRPSDYYNRSTSPWNLHRNEDPERYPSVIWEAKCRHLGCVNNEGNINYHMNSVPIQQEILVLRRESQHCPHSFRLEKMLVAVGCTCVTPIVRHVA
B18: Mutant IL-17A (L74Q, G75R, I77V, D80E, N82K, V83L, Y85H) with C-terminal His tag (HEK/EBNA) (ligand)
chain: GITIPRNPGCPNSEDKNFPRTVMVNLNIHNRNTNTNPKRSSDYYNRSTSPWNLHRNEDPERYPSVIWEAKCRHQRCVNAEGKLDHHMNSVPIQQEILVLRREPPHCPNSFRLEKILVSVGCTCVTPIVHHVAHHHHH

What was measured:
[1] = target: T2, human IL-17A, untagged, E. coli derived (in house or Peprotech) (human, UniProt Q16552 24-155); assay: cell-based or functional assay
cynomolgus IL-17A [2] = target: T1, cynomolgus IL-17A; assay: SPR BIAcore 2000; IgG1 amine-coupled on CM3, IL-17A 0.78-50 nM as analyte; 1:1 Langmuir fit
[3] = target: T2, human IL-17A, untagged, E. coli derived …; assay: as above
[4] = target: T3, Human IL-17A-Flag-His10 (HEK) (human, UniProt Q16552 24-155); assay: as above
T3 construct: may be the same protein as the HIS FLAG IL-17A; not shown: Flag-His10 tag

[5] = target: T2, human IL-17A, untagged, E. coli derived …; assay: cell-based or functional assay; remark: listed apart in the source
cynomolgus IL-17A [6] = target: T1, cynomolgus IL-17A; assay: SPR BIAcore 2000; IgG1 amine-coupled on CM3, IL-17A 0.78-50 nM as analyte; Bivalent Analyte fit (kd1/ka1)
[7] = target: T2, human IL-17A, untagged, E. coli derived …; assay: as above
[8] = target: T2, human IL-17A, untagged, E. coli derived …; assay: cell-based or functional assay; remark: listed apart in the source
cynomolgus IL-17A [9] = target: T1, cynomolgus IL-17A; assay: cell-based or functional assay
[10] = target: T4, human IL-17A derived from the HEK-EBNA expression system (human, UniProt Q16552 24-155); assay: cell-based or functional assay
[11] = target: T2, human IL-17A, untagged, E. coli derived …; assay: cell-based or functional assay; remark: listed apart in the source
[12] = target: T4, human IL-17A derived from the HEK-EBNA …; assay: estimated from pA2 (Schild) analysis in the HT1080 IL-6 release assay
[13] = target: T5, HIS FLAG tagged human IL-17A (in house HEK EBNA derived) (human, UniProt Q16552 24-155); assay: HTRF receptor-ligand assay: inhibition of HIS FLAG IL-17A binding IL-17RA Fc
T5 construct: glycosylated, from HEK EBNA cells; also called HIS FLAG IL-17A; HIS FLAG human IL-17A; not shown: HIS FLAG tag

[14] = target: T5, HIS FLAG tagged human IL-17A (in house …); assay: as above; remark: listed apart in the source
[15] = target: T5, HIS FLAG tagged human IL-17A (in house …); assay: HTRF receptor-ligand assay: inhibition of HIS FLAG IL-17A binding IL-17RA Fc; scFv, non-germlined sequence
[16] = target: T6, Biosource mAb (reference anti-IL-17 mAb); assay: HTRF epitope competition vs HIS FLAG IL-17A binding the IgG
T6 construct: murine (detected with anti-murine Fc)

Antibody 2 IgG1 = target: T7, Antibody 2 IgG1; assay: as above
T7 construct: human IgG1, lambda; constant regions not in the listing; also called Antibody 02

[17] = target: human IL-17A receptor on HT1080 cells (human); assay: cell-based or functional assay

T7 sequence (VH, as listed by the source): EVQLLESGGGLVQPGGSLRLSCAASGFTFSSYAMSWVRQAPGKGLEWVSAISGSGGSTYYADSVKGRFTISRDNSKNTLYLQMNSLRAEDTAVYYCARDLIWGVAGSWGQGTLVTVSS

Binder	HT1080 IL-6 release, IgG IC50 (cynomolgus IL-17A [9]) [nM]	HT1080 IL-6 release, IgG IC50 [10] [nM]	Fold difference in cross-reactivity (IgG) (cynomolgus IL-17A [9]) [fold]	IC50 [14] [nM]	HT1080 IL-6 release, scFv IC50 (cynomolgus IL-17A [9]) [nM]	HT1080 IL-6 release, scFv IC50 [10] [nM]	also measured
B1	5	0.7					cartilage explant synergised IL-6 response, Mean IC50 [1]: 0.61 nM; Kd (cynomolgus IL-17A [2]): 0.512 nM; Kd [3]: 0.195 nM; Kd [4]: 0.171 nM; chondrocyte IL-8 release, geometric mean IC50 at 2 nM IL-17A [5]: 1.3 nM; Kd (cynomolgus IL-17A [6]): 1.34 nM; Kd [7]: 2.1 nM; chondrocyte IL-8 release, geometric mean IC50 at 2 nM IL-17A [8]: 1.6 nM; HT1080 IL-6 release, IgG geometric mean IC50 (n = 12) (cynomolgus IL-17A [9]): 4.8 nM; HT1080 IL-6 release, IgG geometric mean IC50 (n = 15) [10]: 0.8 nM; RA synovial fibroblast IL-8, Mean IC50 versus IL-17A (1 nM) and TNFα (0.1 ng/ml) [11]: 4.97 nM; RA synovial fibroblast IL-8, Mean IC50 versus IL-17A (2 nM) [11]: 2.85 nM; Kd [12]: 0.553 nM
B2	13	0.8	16				
B3	4.2	2.1	2				
B4	4.9	2.2	2				
B5	9.2	2.3	4				
B6	7.3	0.9	8				
B7				12			IC50 [13]: 12 nM; HT1080 IL-6 release, scFv: % inhibition printed in the IC50 column (no IC50 reached) [10]: 70%
B8	39.7	1.4	28				
B9				1.6	147	35.9	
B10				1.6	159	21.7	
B11				2.5	99.5	36.7	
B12				0.6		8.2	HT1080 IL-6 release, scFv: % inhibition printed in the IC50 column (no IC50 reached) (cynomolgus IL-17A [9]): 20%
B13				0.7	96.4	34.3	
B14				1.7	136	31.2	
B15					99	16.2	IC50 [15]: 0.7 nM
B16					249	13	
B17							IC50 [16]: 50 nM; IC50 (Antibody 2 IgG1): 34 nM
B18							IL-6 release from HT1080 cells, EC50 [17]: 2.36 nM
